Reference: PMC5111876 (Microbial Drug Resistance, 2016)
Where two headings read alike, the source gives them in different places.

Columns and labels:
SEC [1] = target: the molecule itself; experiment: SEC
SEC-MALS [2] = target: the molecule itself; experiment: SEC-MALS
SEC-MALS [3] = target: the molecule itself; experiment: SEC-MALS; remark: listed apart in the source
SEC [4] = target: the molecule itself; experiment: SEC; remark: listed apart in the source

Protein | binding result (SEC [1]) | stoichiometry N (SEC-MALS [2]) | other results
Bacillus subtilis GpsB T75D, full length (natural protein, B. subtilis, UniProt P0CI74 1-98, looked up) MLADKVKLSAKEILEKEFKTGVRGYKQEDVDKFLDMIIKDYETFHQEIEELQQENLQLKKQLEEASKKQPVQSNDTNFDILKRLSNLEKHVFGSKLYD | binds |  | 
Bacillus subtilis GpsB T75E, full length (natural protein, B. subtilis, UniProt P0CI74 1-98, looked up) MLADKVKLSAKEILEKEFKTGVRGYKQEDVDKFLDMIIKDYETFHQEIEELQQENLQLKKQLEEASKKQPVQSNETNFDILKRLSNLEKHVFGSKLYD | binds |  | 
Listeria monocytogenes GpsB, full-length wild type (natural protein, L. monocytogenes, UniProt Q8Y614 1-113, looked up) MTSEQFEYHLTGKEILEKEFKTGLRGYSPEDVDEFLDMVIKDYSTFTQEIEALQAENIRLVQELDNAPLRTSTQPAPTFQAAAQPAGTTNFDILKRLSNLEKHVFGNKLDDNE |  | 6 | 
Listeria monocytogenes GpsB F91A F105A double mutant, full length (natural protein, L. monocytogenes, UniProt Q8Y614 1-113, looked up) MTSEQFEYHLTGKEILEKEFKTGLRGYSPEDVDEFLDMVIKDYSTFTQEIEALQAENIRLVQELDNAPLRTSTQPAPTFQAAAQPAGTTNADILKRLSNLEKHVAGNKLDDNE |  | 2 | stoichiometry N (SEC-MALS [3]): 3
Listeria monocytogenes GpsB F91A, full length (natural protein, L. monocytogenes, UniProt Q8Y614 1-113, looked up) MTSEQFEYHLTGKEILEKEFKTGLRGYSPEDVDEFLDMVIKDYSTFTQEIEALQAENIRLVQELDNAPLRTSTQPAPTFQAAAQPAGTTNADILKRLSNLEKHVFGNKLDDNE |  |  | binding result (SEC [4]): binds
